In patent US20110118131A1 (published 2011):
Substitutions are numbered along the chain they refer to. Names and notes keep the numbering of the source.

B1: XPA23 light chain A51S (Fab, V domains shown)
VH: EVQLLESGGGLVQPGGSLRLSCAASGFTFSKYFMFWVRQAPGKGLEWVSVISPSGGMTRYADSVKGRFTISRDNSKNTLYLQMNSLRAEDTAVYYCARVGYGGNSDYWGQGTLVTVSS
VL: DIQMTQSPSSVSASVGDRLTIICRASQDINRWLAWYQQTPGNAPKLLIHSSTSLQSGVPSRFSGSGSGTDFTLTINSLQPEDFATYYCQQADSFPLTFGGGTKVEIK
B2: XPA23 light chain A51W (Fab, V domains shown)
VH: B1 VH
VL: B1 VL with S51W
B3: XPA23 light chain D28H (Fab, V domains shown)
VH: B1 VH
VL: B1 VL with D28H, S51A
B4: XPA23 light chain D28W (Fab, V domains shown)
VH: B1 VH
VL: B1 VL with D28W, S51A
B5: XPA23 light chain D28N (Fab, V domains shown)
VH: B1 VH
VL: B1 VL with D28N, S51A
B6: XPA23 light chain D28E (Fab, V domains shown)
VH: B1 VH
VL: B1 VL with D28E, S51A
B7: XPA23 light chain A91Q (Fab, V domains shown)
VH: B1 VH
VL: B1 VL with S51A, A91Q
B8: XPA23 light chain A91E (Fab, V domains shown)
VH: B1 VH
VL: B1 VL with S51A, A91E
B9: XPA23 light chain D28Y (Fab, V domains shown)
VH: B1 VH
VL: B1 VL with D28Y, S51A
B10: XPA23 light chain A91D (Fab, V domains shown)
VH: B1 VH
VL: B1 VL with S51A, A91D
B11: XPA23 light chain A91W (Fab, V domains shown)
VH: B1 VH
VL: B1 VL with S51A, A91W
B12: XPA23 light chain D28T (Fab, V domains shown)
VH: B1 VH
VL: B1 VL with D28T, S51A
B13: XPA23 light chain A91H (Fab, V domains shown)
VH: B1 VH
VL: B1 VL with S51A, A91H
B14: XPA23 light chain D28R (Fab, V domains shown)
VH: B1 VH
VL: B1 VL with D28R, S51A
B15: XPA23 light chain D28V (Fab, V domains shown)
VH: B1 VH
VL: B1 VL with D28V, S51A
B16: XPA23 light chain A51T (Fab, V domains shown)
VH: B1 VH
VL: B1 VL with S51T
B17: XPA23 light chain A51V (Fab, V domains shown)
VH: B1 VH
VL: B1 VL with S51V
B18: XPA23 light chain A91Y (Fab, V domains shown)
VH: B1 VH
VL: B1 VL with S51A, A91Y
B19: XPA23 light chain D92E (Fab, V domains shown)
VH: B1 VH
VL: B1 VL with S51A, D92E
B20: XPA23 light chain A91R (Fab, V domains shown)
VH: B1 VH
VL: B1 VL with S51A, A91R
B21: XPA23 light chain D28S (Fab, V domains shown)
VH: B1 VH
VL: B1 VL with D28S, S51A
B22: XPA23 light chain D28P (Fab, V domains shown)
VH: B1 VH
VL: B1 VL with D28P, S51A
B23: XPA23 light chain A51Y (Fab, V domains shown)
VH: B1 VH
VL: B1 VL with S51Y
B24: XPA23 light chain D28K (Fab, V domains shown)
VH: B1 VH
VL: B1 VL with D28K, S51A
B25: XPA23 light chain D28A (Fab, V domains shown)
VH: B1 VH
VL: B1 VL with D28A, S51A
B26: XPA23 light chain D28F (Fab, V domains shown)
VH: B1 VH
VL: B1 VL with D28F, S51A
B27: XPA23 light chain A91F (Fab, V domains shown)
VH: B1 VH
VL: B1 VL with S51A, A91F
B28: XPA23 light chain D28I (Fab, V domains shown)
VH: B1 VH
VL: B1 VL with D28I, S51A
B29: XPA23 light chain D28G (Fab, V domains shown)
VH: B1 VH
VL: B1 VL with D28G, S51A
B30: XPA23 light chain D28L (Fab, V domains shown)
VH: B1 VH
VL: B1 VL with D28L, S51A
B31: XPA23 light chain A91S (Fab, V domains shown)
VH: B1 VH
VL: B1 VL with S51A, A91S
B32: XPA23 light chain A91N (Fab, V domains shown)
VH: B1 VH
VL: B1 VL with S51A, A91N

Each binder was assayed against T1, IL-1β (UniProt P01584 117-269) (assay: Biacore, periplasmic extract).
T1 construct: Antigen immobilised on the Biacore chip

Row | fold difference in affinity vs original | binding result | Binder
1 | 0.95 fold |  | B1
2 | 0.24 fold |  | B2
3 | 1.23 fold |  | B3
4 | 3.81 fold |  | B4
5 | 1 fold |  | B5
6 | 0.74 fold |  | B6
7 |  | no binding | B7
8 | 0.1 fold |  | B8
9 | 1.45 fold |  | B9
10 | 1.08 fold |  | B10
11 |  | no binding | B11
12 | 1.19 fold |  | B12
13 | 1.12 fold |  | B13
14 | 0.94 fold |  | B14
15 | 0.85 fold |  | B15
16 | 0.76 fold |  | B16

Row | fold difference in affinity vs original | binding result | Binder
17 | 0.31 fold |  | B17
18 |  | no binding | B18
19 | 0.99 fold |  | B19
20 |  | no binding | B20
21 | 5.25 fold |  | B21
22 | 1.17 fold |  | B22
23 | 0.45 fold |  | B23
24 | 0.82 fold |  | B24
25 | 0.88 fold |  | B25
26 | 1.43 fold |  | B26
27 |  | no binding | B27
28 |  | no binding | B28
29 | 1.21 fold |  | B29
30 | 9.64 fold |  | B30
31 | 0.9 fold |  | B31
32 | 0.1 fold |  | B32
